# Source: patent publication CN115141273A
# B1: 2G3单克隆抗体 (monoclonal antibody against feline calicivirus, from hybridoma 2G3, CGMCC NO.45148) (antibody, V domains shown)
# VH: QVQLQQSGPELVKPGTSVKLSCQASGYTFTNYYMWWVKQRPGQGLEWIGQINPNNDNTDFNEKFRNKATLTVDKSSSTAYMQLSRLTSEDSAVYYCTRRAYWGQGTLVTVSA
# VL: GVLLTQAPLSLPVSLGDQASISCRSSQYVVYINGNSYLEWYLQKPGQSPKLLIYKVSNRFSGVPDRFSGSGSGTDFTLKISRVEAEDLGIYYCFQGSHVPYTFGGGTKLEIR
# Molecular target: 猫杯状病毒 (Feline Calicivirus, FCV), BJH13株 (Feline calicivirus strain BJH13)
# Assay: cell-based or functional assay
binder,measurement,value
B1,中和抗体效价 (neutralising antibody titre of the injection),1280 titre (1:x)
same,中和效价 (neutralisation titre of hybridoma supernatant),220 to 320 titre (1:x)
same,小鼠腹水中和效价 (neutralisation titre of ascites),25100 titre (1:x)
